Results: publication PMC10112965, “Characterization of the nuclear import of the human CHD4–NuRD complex” (Journal of Cell Science, 2023)

B1: CHD4-C-Flag Δ aa 217–360 (enzyme, human, UniProt Q14839 1-1912, looked up)
chain: MASGLGSPSPCSAGSEEEDMDALLNNSLPPPHPENEEDPEEDLSETETPKLKKKKKPKKPRDPKIPKSKRQKKERMLLCRQLGDSSGEGPEFVEEEEEVALRSDSEGSDYTPGKKKKKKLGPKKEKKSKSKRKEEEEEEDDDDDSKEPKSSAQLLEDWGMEDIDHVFSEEDYRTLTNYKAFSQFVRPLIAAKNPKIAVSKMMMVLGAKWREFSTNNAVDGYETDHQDYCEVCQQGGEIILCDTCPRAYHMVCLDPDMEKAPEGKWSCPHCEKEGIQWEAKEDNSEGEEILEEVGGDLEEEDDHHMEFCRVCKDGGELLCCDTCPSSYHIHCLNPPLPEIPNGEWLCPRCTCPALKGKVQKILIWKWGQPPSPTPVPRPPDADPNTPSPKPLEGRPERQFFVKWQGMSYWHCSWVSELQLELHCQVMFRNYQRKNDMDEPPSGDFGGDEEKSRKRKNKDPKFAEMEERFYRYGIKPEWMMIHRILNHSVDKKGHVHYLIKWRDLPYDQASWESEDVEIQDYDLFKQSYWNHRELMRGEEGRPGKKLKKVKLRKLERPPETPTVDPTVKYERQPEYLDATGGTLHPYQMEGLNWLRFSWAQGTDTILADEMGLGKTVQTAVFLYSLYKEGHSKGPFLVSAPLSTIINWEREFEMWAPDMYVVTYVGDKDSRAIIRENEFSFEDNAIRGGKKASRMKKEASVKFHVLLTSYELITIDMAILGSIDWACLIVDEAHRLKNNQSKFFRVLNGYSLQHKLLLTGTPLQNNLEELFHLLNFLTPERFHNLEGFLEEFADIAKEDQIKKLHDMLGPHMLRRLKADVFKNMPSKTELIVRVELSPMQKKYYKYILTRNFEALNARGGGNQVSLLNVVMDLKKCCNHPYLFPVAAMEAPKMPNGMYDGSALIRASGKLLLLQKMLKNLKEGGHRVLIFSQMTKMLDLLEDFLEHEGYKYERIDGGITGNMRQEAIDRFNAPGAQQFCFLLSTRAGGLGINLATADTVIIYDSDWNPHNDIQAFSRAHRIGQNKKVMIYRFVTRASVEERITQVAKKKMMLTHLVVRPGLGSKTGSMSKQELDDILKFGTEELFKDEATDGGGDNKEGEDSSVIHYDDKAIERLLDRNQDETEDTELQGMNEYLSSFKVAQYVVREEEMGEEEEVEREIIKQEESVDPDYWEKLLRHHYEQQQEDLARNLGKGKRIRKQVNYNDGSQEDRDWQDDQSDNQSDYSVASEEGDEDFDERSEAPRRPSRKGLRNDKDKPLPPLLARVGGNIEVLGFNARQRKAFLNAIMRYGMPPQDAFTTQWLVRDLRGKSEKEFKAYVSLFMRHLCEPGADGAETFADGVPREGLSRQHVLTRIGVMSLIRKKVQEFEHVNGRWSMPELAEVEENKKMSQPGSPSPKTPTPSTPGDTQPNTPAPVPPAEDGIKIEENSLKEEESIEGEKEVKSTAPETAIECTQAPAPASEDEKVVVEPPEGEEKVEKAEVKERTEEPMETEPKGAADVEKVEEKSAIDLTPIVVEDKEEKKEEEEKKEVMLQNGETPKDLNDEKQKKNIKQRFMFNIADGGFTELHSLWQNEERAATVTKKTYEIWHRRHDYWLLAGIINHGYARWQDIQNDPRYAILNEPFKGEMNRGNFLEIKNKFLARRFKLLEQALVIEEQLRRAAYLNMSEDPSHPSMALNTRFAEVECLAESHQHLSKESMAGNKPANAVLHKVLKQLEELLSDMKADVTRLPATIARIPPVAVRLQMSERNILSRLANRAPEPTPQQVAQQQ
notes: not shown: Flag, C-terminal, kept
B2: CHD4-C-Flag, C-terminal Flag-tagged recombinant human CHD4 wild-type (enzyme, UniProt Q14839 1-1912, looked up)
chain: MASGLGSPSPCSAGSEEEDMDALLNNSLPPPHPENEEDPEEDLSETETPKLKKKKKPKKPRDPKIPKSKRQKKERMLLCRQLGDSSGEGPEFVEEEEEVALRSDSEGSDYTPGKKKKKKLGPKKEKKSKSKRKEEEEEEDDDDDSKEPKSSAQLLEDWGMEDIDHVFSEEDYRTLTNYKAFSQFVRPLIAAKNPKIAVSKMMMVLGAKWREFSTNNPFKGSSGASVAAAAAAAVAVVESMVTATEVAPPPPPVEVPIRKAKTKEGKGPNARRKPKGSPRVPDAKKPKPKKVAPLKIKLGGFGSKRKRSSSEDDDLDVESDFDDASINSYSVSDGSTSRSSRSRKKLRTTKKKKKGEEEVTAVDGYETDHQDYCEVCQQGGEIILCDTCPRAYHMVCLDPDMEKAPEGKWSCPHCEKEGIQWEAKEDNSEGEEILEEVGGDLEEEDDHHMEFCRVCKDGGELLCCDTCPSSYHIHCLNPPLPEIPNGEWLCPRCTCPALKGKVQKILIWKWGQPPSPTPVPRPPDADPNTPSPKPLEGRPERQFFVKWQGMSYWHCSWVSELQLELHCQVMFRNYQRKNDMDEPPSGDFGGDEEKSRKRKNKDPKFAEMEERFYRYGIKPEWMMIHRILNHSVDKKGHVHYLIKWRDLPYDQASWESEDVEIQDYDLFKQSYWNHRELMRGEEGRPGKKLKKVKLRKLERPPETPTVDPTVKYERQPEYLDATGGTLHPYQMEGLNWLRFSWAQGTDTILADEMGLGKTVQTAVFLYSLYKEGHSKGPFLVSAPLSTIINWEREFEMWAPDMYVVTYVGDKDSRAIIRENEFSFEDNAIRGGKKASRMKKEASVKFHVLLTSYELITIDMAILGSIDWACLIVDEAHRLKNNQSKFFRVLNGYSLQHKLLLTGTPLQNNLEELFHLLNFLTPERFHNLEGFLEEFADIAKEDQIKKLHDMLGPHMLRRLKADVFKNMPSKTELIVRVELSPMQKKYYKYILTRNFEALNARGGGNQVSLLNVVMDLKKCCNHPYLFPVAAMEAPKMPNGMYDGSALIRASGKLLLLQKMLKNLKEGGHRVLIFSQMTKMLDLLEDFLEHEGYKYERIDGGITGNMRQEAIDRFNAPGAQQFCFLLSTRAGGLGINLATADTVIIYDSDWNPHNDIQAFSRAHRIGQNKKVMIYRFVTRASVEERITQVAKKKMMLTHLVVRPGLGSKTGSMSKQELDDILKFGTEELFKDEATDGGGDNKEGEDSSVIHYDDKAIERLLDRNQDETEDTELQGMNEYLSSFKVAQYVVREEEMGEEEEVEREIIKQEESVDPDYWEKLLRHHYEQQQEDLARNLGKGKRIRKQVNYNDGSQEDRDWQDDQSDNQSDYSVASEEGDEDFDERSEAPRRPSRKGLRNDKDKPLPPLLARVGGNIEVLGFNARQRKAFLNAIMRYGMPPQDAFTTQWLVRDLRGKSEKEFKAYVSLFMRHLCEPGADGAETFADGVPREGLSRQHVLTRIGVMSLIRKKVQEFEHVNGRWSMPELAEVEENKKMSQPGSPSPKTPTPSTPGDTQPNTPAPVPPAEDGIKIEENSLKEEESIEGEKEVKSTAPETAIECTQAPAPASEDEKVVVEPPEGEEKVEKAEVKERTEEPMETEPKGAADVEKVEEKSAIDLTPIVVEDKEEKKEEEEKKEVMLQNGETPKDLNDEKQKKNIKQRFMFNIADGGFTELHSLWQNEERAATVTKKTYEIWHRRHDYWLLAGIINHGYARWQDIQNDPRYAILNEPFKGEMNRGNFLEIKNKFLARRFKLLEQALVIEEQLRRAAYLNMSEDPSHPSMALNTRFAEVECLAESHQHLSKESMAGNKPANAVLHKVLKQLEELLSDMKADVTRLPATIARIPPVAVRLQMSERNILSRLANRAPEPTPQQVAQQQ
notes: human CHD4, chromatin remodeling ATPase of NuRD, UniProt Q14839, 1912 aa; Construct (pDFB6 C-Flag) is described in Hoffmeister et al., 2017; also called hCHD4 wild-type; C-Flag hCHD4; not shown: Flag, C-terminal, kept

Target: the molecule itself
Assay: native gel or EMSA; 1 µg protein on a 4–16% NativePAGE gel with G-250 additive, room temperature, 150 V for 2 h, stained with Coomassie and silver

| Protein | stoichiometry N |
| --- | --- |
| B1 | ≥ 3 |
| B2 | ≥ 3 |
